In publication PMC5626478, “LARP4 mRNA codon-tRNA match contributes to LARP4 activity for ribosomal protein mRNA poly(A) tail length protection”:

Biological target: LARP4-NTD (1-286) (human, UniProt Q71RC2 1-286)
Assay: EMSA; EMSA as described in Yang et al. 2011; buffer, salt, pH and temperature not given; protein in uM
Settings: protein: recombinant

Sequence of LARP4-NTD (1-286) (Q71RC2 1-286): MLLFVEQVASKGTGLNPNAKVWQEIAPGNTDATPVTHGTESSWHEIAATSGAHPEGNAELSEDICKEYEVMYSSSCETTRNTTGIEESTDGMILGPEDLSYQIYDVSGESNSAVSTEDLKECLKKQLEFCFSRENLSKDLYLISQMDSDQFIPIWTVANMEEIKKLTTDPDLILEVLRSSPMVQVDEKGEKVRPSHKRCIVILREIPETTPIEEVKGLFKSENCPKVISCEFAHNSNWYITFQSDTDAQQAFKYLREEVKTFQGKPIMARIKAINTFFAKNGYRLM

AAAAAAAAAAAAAAA (ssRNA) [A15 3'-OH]: binds.
